Assay results reported in patent US10766960 (dated 2020).

T1: FcgRIIa R (human, UniProt P12318)
T1 chain: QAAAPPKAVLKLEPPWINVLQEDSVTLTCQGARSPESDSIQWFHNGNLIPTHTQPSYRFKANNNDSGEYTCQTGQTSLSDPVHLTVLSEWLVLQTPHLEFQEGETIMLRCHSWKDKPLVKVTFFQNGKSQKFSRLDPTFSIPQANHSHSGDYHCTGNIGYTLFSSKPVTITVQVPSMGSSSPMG

T2: FcgRIIa H (human, UniProt P12318)
T2 chain: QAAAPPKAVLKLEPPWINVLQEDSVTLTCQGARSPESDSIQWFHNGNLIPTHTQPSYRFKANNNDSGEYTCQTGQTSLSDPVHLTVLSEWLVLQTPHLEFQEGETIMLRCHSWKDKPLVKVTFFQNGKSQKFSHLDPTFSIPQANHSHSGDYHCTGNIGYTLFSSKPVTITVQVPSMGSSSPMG

T3: FcgRIIb (human, UniProt P31994)
T3 chain: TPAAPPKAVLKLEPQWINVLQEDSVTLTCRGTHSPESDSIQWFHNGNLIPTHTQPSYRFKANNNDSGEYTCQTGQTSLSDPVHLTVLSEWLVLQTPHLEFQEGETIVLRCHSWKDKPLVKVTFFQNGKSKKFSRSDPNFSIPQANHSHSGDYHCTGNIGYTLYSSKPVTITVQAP

T4: FcgRIa (human, UniProt P12314)
T4 chain: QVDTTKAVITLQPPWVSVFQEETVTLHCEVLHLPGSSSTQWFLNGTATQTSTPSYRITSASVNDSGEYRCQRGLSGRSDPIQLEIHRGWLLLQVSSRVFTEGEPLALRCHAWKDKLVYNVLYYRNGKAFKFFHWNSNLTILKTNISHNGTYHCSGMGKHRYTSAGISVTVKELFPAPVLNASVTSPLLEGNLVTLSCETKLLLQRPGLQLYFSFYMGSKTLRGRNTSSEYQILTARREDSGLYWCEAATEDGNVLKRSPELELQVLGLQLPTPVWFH


Legend:
Assay in all cases: SPR
FcgRIIIa F = FcgRIIIa F (human, UniProt P08637)
FcgRIIIa F, sequence (P08637 17-208): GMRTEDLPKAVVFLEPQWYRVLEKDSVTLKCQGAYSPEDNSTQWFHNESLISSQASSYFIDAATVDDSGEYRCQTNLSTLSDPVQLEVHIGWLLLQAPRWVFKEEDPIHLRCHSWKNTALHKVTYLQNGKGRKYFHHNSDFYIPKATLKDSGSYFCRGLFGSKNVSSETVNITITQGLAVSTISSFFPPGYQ

FcgRIIa R = biological target: T1, FcgRIIa R
FcgRIIa H = biological target: T2, FcgRIIa H
FcgRIIIa V = FcgRIIIa V (human, UniProt P08637)
FcgRIIIa V, sequence (P08637 17-208 F176V): as the sequence (P08637 17-208) above, with F160V counted along it

FcgRIIb = biological target: T3, FcgRIIb
FcgRIa = biological target: T4, FcgRIa

Binder	Kd (FcgRIIIa F)	Kd (FcgRIIa R)	Kd (FcgRIIa H)	Kd (FcgRIIIa V)	Kd (FcgRIIb)	Kd (FcgRIa)
H240-FA012/H240-FB056/L73-k0 (antibody) chain 1: QDQLVQSGAEVKKPGASVKVSCKASGFNIKDTYIQWVRQAPGQGLEWMGRIDPLRKQTKYREKFEGRVTITADTSTNTAYMELSSLRSEDTAVYYCVRSGREFDYWGQGTLVTVSSASTKGPSVFPLAPSSKSTSGGTAALGCLVKDYFPEPVTVSWNSGALTSGVHTFPAVLQSSGLYSLSSVVTVPSSSLGTKTYICNVNHKPSNTKVDKKVEPKSCDKTHTCPPCPAPEYYWGPSVFLFPPKPKDTLMISRTPEVTCVVVDVSDEEPKVKFNWYVDGVEVHNAKTKPREEQYNATYRVVSVLTVLHQDWLNGKEYKCKVSNKALPAPIEKTISKAKGQPREPQVYTLPPSRKEMTKNQVSLTCLVKGFYPSDIAVEWESNGQPENNYKTTPPVLDSDGSFFLYSKLTVDKSRWQQGNVFSCSVMHEALHNRYTQKSLSLSP chain 2: QDQLVQSGAEVKKPGASVKVSCKASGFNIKDTYIQWVRQAPGQGLEWMGRIDPLRKQTKYREKFEGRVTITADTSTNTAYMELSSLRSEDTAVYYCVRSGREFDYWGQGTLVTVSSASTKGPSVFPLAPSSKSTSEGTAALGCLVEDYFPEPVTVSWNSGALTSGVHTFPAVLQSSGLYSLSSVVTVPSSSLGTQTYICNVDHKPSNTKVDKKVEPKSCDKTHTCPPCPAPELLGGPSVFLFPPKPKDTLMISRTPEVTCVVVDVSHEEPEVQFNWYVDGVEVHNAETKPREEQYNSTYRVVSVLTVLHQDWLNGKEYKCKVSNDALPMPIEETISKAKGQPREPQVYTLPPSREEMTKNQVSLTCLVKGFYPSDIAVEWESNGQPENNYKTTPPVLDSDGSFFLYSKLTVDKSRWQQGNVFSCSVMHEALHNHYTQESLSLSP chain 3: DIQMTQSPSSLSASVGDRVTITCRASQDIHKYIAWYQQKPGQAPRLLIQYTSTLQPGVPSRFSGSGSGTDYTFTISSLQPEDIATYYCLQYEQLRTFGGGTKVEIKRTVAAPSVFIFPPSDEQLKSGTASVVCLLNNFYPREAKVQWKVDNALQSGNSQESVTEQDSKDSTYSLSSTLTLSKADYEKHKVYACEVTHQGLSSPVTKSFNRGEC	5 nM	280 nM	86 nM	1.3 nM	1400 nM	0.1 nM
H240-FA009/H240-FB015/L73-k0 (antibody) chain 1: QDQLVQSGAEVKKPGASVKVSCKASGFNIKDTYIQWVRQAPGQGLEWMGRIDPLRKQTKYREKFEGRVTITADTSTNTAYMELSSLRSEDTAVYYCVRSGREFDYWGQGTLVTVSSASTKGPSVFPLAPSSKSTSGGTAALGCLVKDYFPEPVTVSWNSGALTSGVHTFPAVLQSSGLYSLSSVVTVPSSSLGTKTYICNVNHKPSNTKVDKKVEPKSCDKTHTCPPCPAPEYYWGPSVFLFPPKPKDTLMISRTPEVTCVVVDVSDEEPEVKFNWYVDGVEVHNAKTKPREEQYNATYRVVSVLTVLHQDWLNGKEYKCKVSNKALPAPIEKTISKAKGQPREPQVYTLPPSRKEMTKNQVSLTCLVKGFYPSDIAVEWESNGQPENNYKTTPPVLDSDGSFFLYSKLTVDKSRWQQGNVFSCSVMHEALHNRYTQKSLSLSP chain 2: QDQLVQSGAEVKKPGASVKVSCKASGFNIKDTYIQWVRQAPGQGLEWMGRIDPLRKQTKYREKFEGRVTITADTSTNTAYMELSSLRSEDTAVYYCVRSGREFDYWGQGTLVTVSSASTKGPSVFPLAPSSKSTSEGTAALGCLVKDYFPEPVTVSWNSGALTSGVHTFPAVLQSSGLYSLSSVVTVPSSSLGTQTYICNVNHKPSNTKVDKKVEPKSCDKTHTCPPCPAPELLGGPSVFLFPPKPKDTLMISRTPEVTCVVVDVSHEEPEVQFNWYVDGVEVHNAKTKPREEQYNSTYRVVSVLTVLHQDWLNGKEYKCKVSNDALPMPIEETISKAKGQPREPQVYTLPPSREEMTKNQVSLTCLVKGFYPSDIAVEWESNGQPENNYKTTPPVLDSDGSFFLYSKLTVDKSRWQQGNVFSCSVMHEALHNHYTQESLSLSP chain 3: DIQMTQSPSSLSASVGDRVTITCRASQDIHKYIAWYQQKPGQAPRLLIQYTSTLQPGVPSRFSGSGSGTDYTFTISSLQPEDIATYYCLQYEQLRTFGGGTKVEIKRTVAAPSVFIFPPSDEQLKSGTASVVCLLNNFYPREAKVQWKVDNALQSGNSQESVTEQDSKDSTYSLSSTLTLSKADYEKHKVYACEVTHQGLSSPVTKSFNRGEC	4.2 nM	330 nM	84 nM	1.3 nM	1800 nM	0.093 nM

The remaining lines, values ahead:

Kd (FcgRIIIa F)	Kd (FcgRIIa R)	Kd (FcgRIIa H)	Kd (FcgRIIIa V)	Kd (FcgRIIb)	Kd (FcgRIa)	Binder
5.3 nM	290 nM	96 nM	1.5 nM	1800 nM	0.057 nM	H240-FA030/H240-FB064/L73-k0 (antibody) chain 1: QDQLVQSGAEVKKPGASVKVSCKASGFNIKDTYIQWVRQAPGQGLEWMGRIDPLRKQTKYREKFEGRVTITADTSTNTAYMELSSLRSEDTAVYYCVRSGREFDYWGQGTLVTVSSASTKGPSVFPLAPSSKSTSGGTAALGCLVKDYFPEPVTVSWNSGALTSGVHTFPAVLQSSGLYSLSSVVTVPSSSLGTKTYTCNVNHKPSNTKVDKKVEPKSCDKTHTCPPCPAPEYYWGPSVFLFPPKPKDTLMISRTPEVTCVVVDVSDEEPKVKFNWYVDGVEVHNAKTKPREEQYNATYRVVSVLTVLHQDWLNGKEYKCKVSNKALPAPIEKTISKAKGQPREPQVYTLPPSRKEMTKNQVSLTCLVKGFYPSDIAVEWESNGQPENNYKTTPPVLDSDGSFFLYSKLTVDKSRWQQGNVFSCSVMHEALHNRYTQKSLSLSP chain 2: QDQLVQSGAEVKKPGASVKVSCKASGFNIKDTYIQWVRQAPGQGLEWMGRIDPLRKQTKYREKFEGRVTITADTSTNTAYMELSSLRSEDTAVYYCVRSGREFDYWGQGTLVTVSSASTKGPSVFPLAPSSKSTSESTAALGCLVKDYFPEPVTVSWNSGALTSGVHTFPAVLQSSGLYSLSSVVTVPSSNFGTQTYTCNVDHKPSNTKVDKTVEPKSCDKTHTCPPCPAPELLGGPSVFLFPPKPKDTLMISRTPEVTCVVVDVSHEEPEVQFNWYVDGVEVHNAKTKPREEQYNSTYRVVSVLTVLHQDWLNGKEYKCKVSNDALPMPIEETISKAKGQPREPQVYTLPPSREEMTKNQVSLTCLVKGFYPSDIAVEWESNGQPENNYKTTPPVLDSDGSFFLYSKLTVDKSRWQQGNVFSCSVMHEALHNHYTQESLSLSP chain 3: DIQMTQSPSSLSASVGDRVTITCRASQDIHKYIAWYQQKPGQAPRLLIQYTSTLQPGVPSRFSGSGSGTDYTFTISSLQPEDIATYYCLQYEQLRTFGGGTKVEIKRTVAAPSVFIFPPSDEQLKSGTASVVCLLNNFYPREAKVQWKVDNALQSGNSQESVTEQDSKDSTYSLSSTLTLSKADYEKHKVYACEVTHQGLSSPVTKSFNRGEC
3.5 nM	250 nM	77 nM	1.3 nM	1300 nM	0.038 nM	H240-FA020/H240-FB059/L73-k0 (antibody) chain 1: QDQLVQSGAEVKKPGASVKVSCKASGFNIKDTYIQWVRQAPGQGLEWMGRIDPLRKQTKYREKFEGRVTITADTSTNTAYMELSSLRSEDTAVYYCVRSGREFDYWGQGTLVTVSSASTKGPSVFPLAPSSKSTSGGTAALGCLVKDYFPEPVTVSWNSGALTSGVHTFPAVLQSSGLYSLSSVVTVPSSSLGTKTYTCNVNHKPSNTKVDKKVEPKSCDKTHTCPPCPAPEYYWGPSVFLFPPKPKDTLMISRTPEVTCVVVDVSDEEPEVKFNWYVDGVEVHNAKTKPREEQYNATYRVVSVLTVLHQDWLNGKEYKCKVSNKALPAPIEKTISKAKGQPREPQVYTLPPSRKEKTKNQVSLTCLVKGFYPSDIAVEWESNGQPENNYKTTPPVLDSDGSFFLYSKLTVDKSRWQQGNVFSCSVMHEALHNRYTQKSLSLSP chain 2: QDQLVQSGAEVKKPGASVKVSCKASGFNIKDTYIQWVRQAPGQGLEWMGRIDPLRKQTKYREKFEGRVTITADTSTNTAYMELSSLRSEDTAVYYCVRSGREFDYWGQGTLVTVSSASTKGPSVFPLAPSSKSTSGETAALGCLVEDYFPEPVTVSWNSGALTSGVHTFPAVLQSSGLYSLSSVVTVPSSSLGTQTYICNVNHKPSNTKVDKKVEPKSCDKTHTCPPCPAPELLGGPSVFLFPPKPKDTLMISRTPEVTCVVVDVSHEEPEVQFNWYVDGVEVHNAETKPREEQYNSTYRVVSVLTVLHQDWLNGKEYKCKVSNDALPMPIEETISKAKGQPREPQVYTLPPSREEMTKNQVSLTCLVKGFYPSDIAVEWESNGQPENNYKTTPPVLDSDGSFFLYSKLTVDKSRWQQGNVFSCSVMHEALHNHYTQESLSLSP chain 3: DIQMTQSPSSLSASVGDRVTITCRASQDIHKYIAWYQQKPGQAPRLLIQYTSTLQPGVPSRFSGSGSGTDYTFTISSLQPEDIATYYCLQYEQLRTFGGGTKVEIKRTVAAPSVFIFPPSDEQLKSGTASVVCLLNNFYPREAKVQWKVDNALQSGNSQESVTEQDSKDSTYSLSSTLTLSKADYEKHKVYACEVTHQGLSSPVTKSFNRGEC
